Source: patent US20230067757A1
pEC50: −log10 of the molar value.

How the values were obtained:
[1] = target: human claudin 18 isoform 2 (claudin 18.2) (human); assay: cell-based or functional assay
[2] = target: human claudin 18 isoform 2 (claudin 18.2) (human); assay: immunofluorescence imaging, CHO-CLDN18.2 cells (FIG. 3B)
[3] = target: human claudin 18 isoform 2 (claudin 18.2) (human); assay: immunofluorescence imaging on CHO-Claudin18.2 cells, serial dilution of antibody; table drawn under the curves (run with Hu-2, Hu-9, Hu-10)

Sequence of PC1 (in-house positive control CLDN18.2-specific antibody zolbetuximab) (VH): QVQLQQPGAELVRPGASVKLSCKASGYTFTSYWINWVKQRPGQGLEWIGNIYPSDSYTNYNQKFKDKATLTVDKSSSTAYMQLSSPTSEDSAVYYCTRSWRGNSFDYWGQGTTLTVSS
Sequence of PC1 (in-house positive control CLDN18.2-specific antibody zolbetuximab) (VL): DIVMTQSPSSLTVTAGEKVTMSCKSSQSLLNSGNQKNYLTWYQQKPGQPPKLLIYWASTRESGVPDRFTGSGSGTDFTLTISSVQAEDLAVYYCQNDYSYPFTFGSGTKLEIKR

ADCC EC50, similar assay with human effector cells (data not shown) [1]: 0.66 nM
pEC50 [2]: 8.49
pEC50 [3]: 8.49
Substance: PC1 (in-house positive control CLDN18.2-specific antibody zolbetuximab)
